Results from the supplement of paper PMC10724198.
± gives the standard deviation of the averaged measurements.

System: Saccharomyces cerevisiae
Assay: protein stability index of tFT-peptide fusion (C-terminal peptide) (PSI (0-1 scale)); higher = more stable (slower turnover)
Conditions: genetic background: wild type; temperature: 30 C
Description: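 Multiplexed protein stability (MPS) profiling in S. cerevisiae. Random 12-aa peptides (tFT-X12 library) are fused to the C-terminus of a sfGFP-mCherry tandem fluorescent timer, after mCherry and a GGGS linker. Cells are FACS-sorted into 8 mCherry/sfGFP bins and deep-sequenced. The protein stability index (PSI) is the read-weighted bin average, scaled from 0 (unstable) to 1 (stable). Only peptides with >10 reads are reported; cells were grown at 30 °C in SC-His with glucose.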
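Also: PSI is a weighted mean of sequencing reads over stability bins, variants kept only with over 10 reads, mCherry proximal and sfGFP distal, peptide attached via GGGS linker.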

Sequence	protein stability index
GQMSKMRDRLIA	0.652 ± 0.0094
GQPGDCWRVCPR	0.6851 ± 0.0027
GQPLAEKFGEFV	0.623 ± 0.088
GRAPPGHSLPVR	0.7187 ± 0.0071
GRAWWVGGEGVW	0.677 ± 0.014
GRCGGEGGGEEE	0.673 ± 0.031
GRCRALVARGGH	0.76 ± 0.2
GREVRGLRVPGS	0.653 ± 0.071
GRGEDLVRRHTP	0.668 ± 0.032
GRGEGVDRSSRR	0.703 ± 0.017
GRGGGEEEEEER	0.663 ± 0.024
GRGGGSRIVGGV	0.704 ± 0.023
GRGGRGWGEWDR	0.706 ± 0.059
GRGGVLEEAVGG	0.654 ± 0.077
GRGIVVQNVLRQ	0.696 ± 0.011
GRGVDGRSGCLL	0.6732 ± 0.0029
GRLPAYIHATRA	0.63128 ± 0.00047
GRLSPRRPRLLV	0.645 ± 0.024
GRPYCISASPPH	0.706 ± 0.0075
GRQTEENRKRRV	0.7 ± 0.037
GRRGRSASRIRA	0.76 ± 0.14
GRRMGHQLGAGA	0.684 ± 0.039
GRRMRGAEKQKK	0.829 ± 0.16
GRRPDEQRQTIG	0.677 ± 0.0071
GRRQGKRRIGRK	0.652 ± 0.036

Sequence	protein stability index
GRRTNLCERLAL	0.722 ± 0.042
GRSAGGTGAPSR	0.699 ± 0.022
GRSAVVMCFHAG	0.697 ± 0.018
GRSAYRESGRRV	0.675 ± 0.04
GRSCAFCRVSRG	0.721 ± 0.083
GRSGGGTGAPSR	0.637 ± 0.061
GRSPEIGPHIVN	0.699 ± 0.014
GRVGLRGRPGPP	0.716 ± 0.12
GRVRAKTETSNS	0.669 ± 0.028
GRVSGDRFIVIV	0.572 ± 0.0008
GRVVGDGRSVGV	0.683 ± 0.01
GSACGSSYKWQM	0.614 ± 0.068
GSAGPWSFVGDP	0.702 ± 0.085
GSCLLCGACGCR	0.692 ± 0.061
GSCSGTVLGGSV	0.626 ± 0.024
GSCVGASRGWLV	0.727 ± 0.068
GSEISTRGVGRR	0.6647 ± 0.0013
GSFVLPLIYIHN	0.499 ± 0.0025
GSGGRGTVCSEG	0.652 ± 0.015
GSGPPVGNGLIV	0.7169 ± 0.0027
GSGRGGWRRGER	0.707 ± 0.042
GSIRFVIFLTRL	0.587 ± 0.12
GSLIVAARGVAG	0.681 ± 0.024
GSLLSNVPPRIR	0.706 ± 0.013
GSQRAHRQAAHD	0.683 ± 0.077

Sequence	protein stability index
GSQVGVRWGRFG	0.675 ± 0.0079
GSRGGPGGEAAG	0.652 ± 0.019
GSRRSWWVLCLG	0.485 ± 0.072
GSRSLISLRTGA	0.604 ± 0.037
GSSHLRFRGMEG	0.614 ± 0.02
GSSTINRVDLKR	0.662 ± 0.015
GSSYRKNDRQEK	0.723 ± 0.048
GSVFWVCGFFRV	0.559 ± 0.034
GSVGDASYAAVW	0.819 ± 0.034
GSVGQNLCPGSI	0.667 ± 0.031
GSVGSRIFLVHV	0.602 ± 0.086
GSVMGRRTGAFV	0.653 ± 0.041
GSVRSLARFCVF	0.499 ± 0.072
GSVTLTLLRPPS	0.753 ± 0.086
GSYSIVDRTPLF	0.5679 ± 0.005
GSYVPPVVLLYK	0.647 ± 0.0095
GTDWRDKADLRG	0.7071 ± 0.0046
GTEKRDSDKIIL	0.68 ± 0.086
GTGSRFRCLERS	0.739 ± 0.031
GTLFKEGSRVTL	0.665 ± 0.027
GTRAGGGWSCES	0.711 ± 0.02
GTRGLDTPPGRD	0.663 ± 0.067
GTSPGREFYWHK	0.702 ± 0.033
GTTHHRRKPSYL	0.725 ± 0.05
GTTLGEVVCGVL	0.683 ± 0.045

Sequence	protein stability index
GTVDGILLVFVE	0.593 ± 0.026
GVAPGRSRRKRG	0.67 ± 0.018
GVCSWLVFGGWA	0.684 ± 0.056
GVDAGGVFSRLC	0.639 ± 0.018
GVDGRWGGEMGR	0.747 ± 0.097
GVEDRFGGSCGL	0.639 ± 0.049
GVERSLFGRIGV	0.735 ± 0.024
GVESQIHISTYE	0.686 ± 0.049
GVEVVVWRSGGI	0.688 ± 0.019
GVFAGGLWCVGF	0.657 ± 0.087
GVFGGAGCGVVL	0.724 ± 0.022
GVFGLMVGWGWG	0.671 ± 0.053
GVFWRGCGGCGG	0.685 ± 0.041
GVGDELIRAEQT	0.723 ± 0.018
GVGGFPSRLVGG	0.69 ± 0.043
GVGGRAGWGGLL	0.7167 ± 0.002
GVGGRGVGAGGG	0.662 ± 0.055
GVGLGGVGFRGG	0.694 ± 0.098
GVGSWSCGGSVH	0.6634 ± 0.0034
GVIKLTQEKAST	0.679 ± 0.017
GVLCGQGRAGAA	0.7 ± 0.014
GVLCGVGLGFGV	0.702 ± 0.044
GVLDTRWIIIST	0.53 ± 0.029
